Tests used:
Assay in all cases: alanine scan, flow cytometry;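 note: HEK293-T cells transiently expressing single-residue alanine mutants of CD33 (alanine swapped to serine), antibody binding read by fluorescence in duplicate, background-subtracted, expressed relative to wild-type CD33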
human CD33 G34A = human CD33 G34A (human, UniProt P20138 18-364)
human CD33 V31A = human CD33 V31A (human, UniProt P20138 18-364)
human CD33 P72A = human CD33 P72A (human, UniProt P20138 18-364)
human CD33 I47A = human CD33 I47A (human, UniProt P20138 18-364)
human CD33 S28A = human CD33 S28A (human, UniProt P20138 18-364)
Chain of human CD33 S28A (P20138 18-364 S28A limits assumed): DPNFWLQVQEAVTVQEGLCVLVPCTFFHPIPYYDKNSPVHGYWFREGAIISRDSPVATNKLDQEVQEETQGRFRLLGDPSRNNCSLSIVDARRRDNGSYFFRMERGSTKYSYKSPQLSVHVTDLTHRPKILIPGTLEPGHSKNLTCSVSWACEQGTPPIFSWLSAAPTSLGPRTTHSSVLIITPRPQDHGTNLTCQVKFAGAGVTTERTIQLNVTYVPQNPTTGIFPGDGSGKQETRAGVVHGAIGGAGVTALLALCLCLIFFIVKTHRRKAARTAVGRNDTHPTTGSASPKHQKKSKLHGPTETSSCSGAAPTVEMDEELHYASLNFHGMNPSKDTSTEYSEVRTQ

human CD33 V56A = human CD33 V56A (human, UniProt P20138 18-364)
human CD33 G58A = human CD33 G58A (human, UniProt P20138 18-364)
human CD33 F43A = human CD33 F43A (human, UniProt P20138 18-364)
human CD33 I66A = human CD33 I66A (human, UniProt P20138 18-364)
human CD33 S71A = human CD33 S71A (human, UniProt P20138 18-364)
human CD33 P46A = human CD33 P46A (human, UniProt P20138 18-364)
human CD33 Q80A = human CD33 Q80A (human, UniProt P20138 18-364)
Chain of human CD33 Q80A (P20138 18-364 Q80A limits assumed): as the sequence (P20138 18-364 S28A limits assumed) above, with A11S, Q63A counted along it

human CD33 G64A = human CD33 G64A (human, UniProt P20138 18-364)
human CD33 V82A = human CD33 V82A (human, UniProt P20138 18-364)
Chain of human CD33 V82A (P20138 18-364 V82A limits assumed): as the sequence (P20138 18-364 S28A limits assumed) above, with A11S, V65A counted along it

human CD33 R69A = human CD33 R69A (human, UniProt P20138 18-364)
Chain of human CD33 R69A (P20138 18-364 R69A limits assumed): as the sequence (P20138 18-364 S28A limits assumed) above, with A11S, R52A counted along it

human CD33 G88A = human CD33 G88A (human, UniProt P20138 18-364)
human CD33 E85A = human CD33 E85A (human, UniProt P20138 18-364)
human CD33 E33A = human CD33 E33A (human, UniProt P20138 18-364)
Chain of human CD33 E33A (P20138 18-364 E33A limits assumed): as the sequence (P20138 18-364 S28A limits assumed) above, with A11S, E16A counted along it

human CD33 E63A = human CD33 E63A (human, UniProt P20138 18-364)
human CD33 R89A = human CD33 R89A (human, UniProt P20138 18-364)
Chain of human CD33 R89A (P20138 18-364 R89A limits assumed): as the sequence (P20138 18-364 S28A limits assumed) above, with A11S, R72A counted along it

human CD33 S54A = human CD33 S54A (human, UniProt P20138 18-364)
human CD33 Y49A = human CD33 Y49A (human, UniProt P20138 18-364)
Chain of human CD33 Y49A (P20138 18-364 Y49A limits assumed): as the sequence (P20138 18-364 S28A limits assumed) above, with A11S, Y32A counted along it

human CD33 Y59A = human CD33 Y59A (human, UniProt P20138 18-364)
human CD33 Y50A = human CD33 Y50A (human, UniProt P20138 18-364)
human CD33 Q32A = human CD33 Q32A (human, UniProt P20138 18-364)
Chain of human CD33 Q32A (P20138 18-364 Q32A limits assumed): as the sequence (P20138 18-364 S28A limits assumed) above, with A11S, Q15A counted along it

human CD33 P48A = human CD33 P48A (human, UniProt P20138 18-364)
Chain of human CD33 P48A (P20138 18-364 P48A limits assumed): as the sequence (P20138 18-364 S28A limits assumed) above, with A11S, P31A counted along it

human CD33 Q26A = human CD33 Q26A (human, UniProt P20138 18-364)
human CD33 F44A = human CD33 F44A (human, UniProt P20138 18-364)
human CD33 P40A = human CD33 P40A (human, UniProt P20138 18-364)
human CD33 P55A = human CD33 P55A (human, UniProt P20138 18-364)
human CD33 T75A = human CD33 T75A (human, UniProt P20138 18-364)
human CD33 A65S = human CD33 A65S (human, UniProt P20138 18-364)
human CD33 L92A = human CD33 L92A (human, UniProt P20138 18-364)
human CD33 E27A = human CD33 E27A (human, UniProt P20138 18-364)
human CD33 K52A = human CD33 K52A (human, UniProt P20138 18-364)
Chain of human CD33 K52A (P20138 18-364 K52A limits assumed): as the sequence (P20138 18-364 S28A limits assumed) above, with A11S, K35A counted along it

human CD33 V73A = human CD33 V73A (human, UniProt P20138 18-364)
human CD33 T30A = human CD33 T30A (human, UniProt P20138 18-364)
Chain of human CD33 T30A (P20138 18-364 T30A limits assumed): as the sequence (P20138 18-364 S28A limits assumed) above, with A11S, T13A counted along it

human CD33 F21A = human CD33 F21A (human, UniProt P20138 18-364)
Chain of human CD33 F21A (P20138 18-364 F21A limits assumed): as the sequence (P20138 18-364 S28A limits assumed) above, with F4A, A11S counted along it

human CD33 C36A = human CD33 C36A (human, UniProt P20138 18-364)
human CD33 D18A = human CD33 D18A (human, UniProt P20138 19-364)
human CD33 R91A = human CD33 R91A (human, UniProt P20138 18-364)
Chain of human CD33 R91A (P20138 18-364 R91A limits assumed): as the sequence (P20138 18-364 S28A limits assumed) above, with A11S, R74A counted along it

human CD33 R62A = human CD33 R62A (human, UniProt P20138 18-364)

Chain of human CD33 G34A (P20138 18-364 G34A limits assumed): as the sequence (P20138 18-364 S28A limits assumed) above, with A11S, G17A counted along it

B1: Refmab #2 (antibody, V domains shown)
VH: QVQLVQSGAEVKKPGSSVKVSCKASGGTFSDYAISWVRQAPGQGLEWMGRIIPILGVADYAQKFQGRVTITADKSTRTAYMELSSLRSEDTAVYYCARNWADAFDIWGQGTMVTVSS
VL: DIQLTQSPSSLSASVGDRVTITCRASQGISSVLAWYQQKPGKAPKLLIYDASSLESGVPSRFSGSGSGTDFTLTISSLQPEDFATYYCQQFDSSITFGQGTKLEIK
notes: Full-length format is human IgG1 Fc silent (PG-LALA); The alanine scan used IgG or Fab
Human CD33 G34A
  Mean % WT Binding: 105 % WT
Human CD33 V31A
  Mean % WT Binding: 106 % WT
Human CD33 P72A
  Mean % WT Binding: 114 % WT
Human CD33 I47A
  Mean % WT Binding: 2.1 % WT
Human CD33 S28A
  Mean % WT Binding: 117 % WT
Human CD33 V56A
  Mean % WT Binding: 80.7 % WT
Human CD33 G58A
  Mean % WT Binding: 118 % WT
Human CD33 F43A
  Mean % WT Binding: 10.6 % WT
Human CD33 I66A
  Mean % WT Binding: 118 % WT
Human CD33 S71A
  Mean % WT Binding: 112 % WT
Human CD33 P46A
  Mean % WT Binding: 104 % WT
Human CD33 Q80A
  Mean % WT Binding: 112 % WT
Human CD33 G64A
  Mean % WT Binding: 114 % WT
Human CD33 V82A
  Mean % WT Binding: 116 % WT
Human CD33 R69A
  Mean % WT Binding: 138 % WT
Human CD33 G88A
  Mean % WT Binding: 110 % WT
Human CD33 E85A
  Mean % WT Binding: 114 % WT
Human CD33 E33A
  Mean % WT Binding: 120 % WT
Human CD33 E63A
  Mean % WT Binding: 107 % WT
Human CD33 R89A
  Mean % WT Binding: 98.7 % WT
Human CD33 S54A
  Mean % WT Binding: 112 % WT
Human CD33 Y49A
  Mean % WT Binding: 44.2 % WT
Human CD33 Y59A
  Mean % WT Binding: 95.7 % WT
Human CD33 Y50A
  Mean % WT Binding: 141 % WT
Human CD33 Q32A
  Mean % WT Binding: 108 % WT
Human CD33 P48A
  Mean % WT Binding: 109 % WT
Human CD33 Q26A
  Mean % WT Binding: 111 % WT
Human CD33 F44A
  Mean % WT Binding: 1.2 % WT
Human CD33 P40A
  Mean % WT Binding: 101 % WT
Human CD33 P55A
  Mean % WT Binding: 120 % WT
Human CD33 T75A
  Mean % WT Binding: 114 % WT
Human CD33 A65S
  Mean % WT Binding: 112 % WT
Human CD33 L92A
  Mean % WT Binding: 106 % WT
Human CD33 E27A
  Mean % WT Binding: 111 % WT
Human CD33 K52A
  Mean % WT Binding: 94.9 % WT
Human CD33 V73A
  Mean % WT Binding: 99.1 % WT
Human CD33 T30A
  Mean % WT Binding: 92.1 % WT
Human CD33 F21A
  Mean % WT Binding: 120 % WT
Human CD33 C36A
  Mean % WT Binding: 117 % WT
Human CD33 D18A
  Mean % WT Binding: 119 % WT
Human CD33 R91A
  Mean % WT Binding: 119 % WT
Human CD33 R62A
  Mean % WT Binding: 124 % WT
